Laboratory results: patent publication US20150140009A1

Legend:
[1] = target: TNFR2/p75 on BM-derived EPCs of TNFR1/p55 knockout mice (mouse) (UniProt P25119); experiment: cell-based or functional assay
[2] = target: TNF-α in conditioned medium of 1 Gy γ-irradiated mouse BM-derived EPCs (IR-CM) (mouse) (UniProt P06804); experiment: cell-based or functional assay
Sequence of UniProt P06804 (P06804 80-235 limits assumed): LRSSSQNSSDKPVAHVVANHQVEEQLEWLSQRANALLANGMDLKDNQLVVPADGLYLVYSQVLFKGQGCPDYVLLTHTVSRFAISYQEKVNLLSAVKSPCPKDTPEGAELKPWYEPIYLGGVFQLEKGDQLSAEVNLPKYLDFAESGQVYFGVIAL

Sequence of UniProt P25119 (P25119 23-474): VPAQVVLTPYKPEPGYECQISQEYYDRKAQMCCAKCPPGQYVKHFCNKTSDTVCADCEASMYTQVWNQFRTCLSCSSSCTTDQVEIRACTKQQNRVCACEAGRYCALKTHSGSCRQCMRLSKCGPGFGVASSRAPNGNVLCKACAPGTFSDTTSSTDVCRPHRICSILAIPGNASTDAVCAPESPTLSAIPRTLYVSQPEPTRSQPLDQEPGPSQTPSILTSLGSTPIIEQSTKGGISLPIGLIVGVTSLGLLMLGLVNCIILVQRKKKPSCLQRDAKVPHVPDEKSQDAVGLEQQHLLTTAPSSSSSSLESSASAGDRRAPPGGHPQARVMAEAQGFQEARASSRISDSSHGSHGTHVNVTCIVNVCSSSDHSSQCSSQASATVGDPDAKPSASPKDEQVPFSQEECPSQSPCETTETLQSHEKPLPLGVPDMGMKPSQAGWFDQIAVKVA

mean p-H2AX foci/cell count, naïve p55KO EPCs, 24 h with TNF (100 pg/ml, 1, 40 ng/ml), all cells counted; control 0.98 [1] [foci/cell]	formation of p-H2AX foci in EPCs treated with γ-IR conditioned media after neutralizing TNF [2] [fold]	mean p-H2AX foci/cell, naïve WT EPCs, 24 h treatment with 3-day IR-CM treated with TNF-α neutralizing antibody [2] [foci/cell]	mean p-H2AX foci/cell, naïve WT EPCs, 24 h treatment with 5-day IR-CM treated with TNF-α neutralizing antibody [2] [foci/cell]	mean p-H2AX foci/cell, naïve WT EPCs, 24 h treatment with 1 h IR-CM treated with TNF-α neutralizing antibody [2] [foci/cell]	mean p-H2AX foci/cell, naïve WT EPCs, 24 h treatment with 5 h IR-CM treated with TNF-α neutralizing antibody [2] [foci/cell]	mean p-H2AX foci/cell, naïve WT EPCs, 24 h treatment with 24 h IR-CM treated with TNF-α neutralizing antibody [2] [foci/cell]	mean p-H2AX foci/cell, naïve p55KO EPCs, 24 h treatment with 3-day IR-CM treated with TNF-α neutralizing antibody [2] [foci/cell]	mean p-H2AX foci/cell, naïve p55KO EPCs, 24 h treatment with 5-day IR-CM treated with TNF-α neutralizing antibody [2] [foci/cell]	mean p-H2AX foci/cell, naïve p55KO EPCs, 24 h treatment with 1 h IR-CM treated with TNF-α neutralizing antibody [2] [foci/cell]	mean p-H2AX foci/cell, naïve p55KO EPCs, 24 h treatment with 5 h IR-CM treated with TNF-α neutralizing antibody [2] [foci/cell]	mean p-H2AX foci/cell, naïve p55KO EPCs, 24 h treatment with 24 h IR-CM treated with TNF-α neutralizing antibody [2] [foci/cell]	Substance
2.8 to 3.9												mouse recombinant TNF-α (Cat. 34-8321-82; eBiosciences) (from UniProt P06804 80-235) (ligand)
	2	3.2	3.5	2.4	4.3	5	4.9	3.5	3.7	3.6	4.2	TNF-α neutralizing antibody (Cat. 506309, BioLegend)
